Laboratory results published in patent EP0533846B1.

How the values were obtained:
[1] = biological target: human ciliary neurotrophic factor receptor (CNTFR) (human); assay: indirect binding: CNTF-myc, 9E10 antibody, FITC-labelled goat anti-mouse antibody, FACS on transfected COS cells
[2] = biological target: human ciliary neurotrophic factor receptor (CNTFR) (human); assay: indirect binding assay on COS cells transfected with clone I1: 1 ug/ml CNTF-myc, 9E10, 125I goat anti-mouse antibody; hand-held gamma counter
[3] = biological target: human ciliary neurotrophic factor receptor (CNTFR) (human); assay: indirect binding assay on COS cells transfected with clone I2: 1 ug/ml CNTF-myc, 9E10, 125I goat anti-mouse antibody; hand-held gamma counter
[4] = biological target: human ciliary neurotrophic factor receptor (CNTFR) (human); assay: indirect binding assay on COS cells transfected with clone I4: 1 ug/ml CNTF-myc, 9E10, 125I goat anti-mouse antibody; hand-held gamma counter
[5] = biological target: human ciliary neurotrophic factor receptor (CNTFR) (human); assay: indirect binding assay on COS cells transfected with clone I5: 1 ug/ml CNTF-myc, 9E10, 125I goat anti-mouse antibody; hand-held gamma counter
[6] = biological target: human ciliary neurotrophic factor receptor (CNTFR) (human); assay: indirect binding assay on COS cells transfected with clone I6: 1 ug/ml CNTF-myc, 9E10, 125I goat anti-mouse antibody; hand-held gamma counter
[7] = biological target: human ciliary neurotrophic factor receptor (CNTFR) (human); assay: indirect binding assay on COS cells transfected with clone I7: 1 ug/ml CNTF-myc, 9E10, 125I goat anti-mouse antibody; hand-held gamma counter
[8] = biological target: human ciliary neurotrophic factor receptor (CNTFR) (human); assay: indirect binding assay on COS cells transfected with clone I8: 1 ug/ml CNTF-myc, 9E10, 125I goat anti-mouse antibody; hand-held gamma counter
[9] = biological target: human ciliary neurotrophic factor receptor (CNTFR) (human); assay: indirect binding assay on COS cells transfected with clone I9: 1 ug/ml CNTF-myc, 9E10, 125I goat anti-mouse antibody; hand-held gamma counter
[10] = biological target: human ciliary neurotrophic factor receptor (CNTFR) (human); assay: indirect binding assay on COS cells transfected with clone I10: 1 ug/ml CNTF-myc, 9E10, 125I goat anti-mouse antibody; hand-held gamma counter
[11] = biological target: human ciliary neurotrophic factor receptor (CNTFR) (human); assay: indirect binding assay on COS cells transfected with clone I11: 1 ug/ml CNTF-myc, 9E10, 125I goat anti-mouse antibody; hand-held gamma counter
[12] = biological target: human ciliary neurotrophic factor receptor (CNTFR) (human); assay: indirect binding assay on COS cells transfected with clone I12: 1 ug/ml CNTF-myc, 9E10, 125I goat anti-mouse antibody; hand-held gamma counter
[13] = biological target: human ciliary neurotrophic factor receptor (CNTFR) (human); assay: indirect binding assay on COS cells transfected with clone I13: 1 ug/ml CNTF-myc, 9E10, 125I goat anti-mouse antibody; hand-held gamma counter
[14] = biological target: human ciliary neurotrophic factor receptor (CNTFR) (human); assay: indirect binding assay on COS cells transfected with clone I14: 1 ug/ml CNTF-myc, 9E10, 125I goat anti-mouse antibody; hand-held gamma counter
[15] = biological target: human ciliary neurotrophic factor receptor (CNTFR) (human); assay: indirect binding assay on COS cells transfected with clone I15: 1 ug/ml CNTF-myc, 9E10, 125I goat anti-mouse antibody; hand-held gamma counter
[16] = biological target: human ciliary neurotrophic factor receptor (CNTFR) (human); assay: iodinated CNTF bound to SH-SY5Y cells first, then incubation without PI-PLC; no cold excess
[17] = biological target: human ciliary neurotrophic factor receptor (CNTFR) (human); assay: iodinated CNTF bound to SH-SY5Y cells first, then PI-PLC 500 mU/ml for 45 min; no cold excess
[18] = biological target: human ciliary neurotrophic factor receptor (CNTFR) (human); assay: approx. 100 pM iodinated CNTF on SH-SY5Y cells; control pre-treatment without PI-PLC; no cold excess
[19] = biological target: human ciliary neurotrophic factor receptor (CNTFR) (human); assay: iodinated CNTF bound to SH-SY5Y cells first, then incubation without PI-PLC; with excess unlabelled CNTF (non-specific)
[20] = biological target: human ciliary neurotrophic factor receptor (CNTFR) (human); assay: monolayer binding of 2.16 nM 125I-CNTF to SH-SY5Y cells (3 x 10^5 cells/well, endogenous receptor); specific cpm per cell
[21] = biological target: human ciliary neurotrophic factor receptor (CNTFR) (human); assay: iodinated CNTF bound to SH-SY5Y cells first, then PI-PLC 500 mU/ml for 45 min; with excess unlabelled CNTF (non-specific)
[22] = biological target: human ciliary neurotrophic factor receptor (CNTFR) (human); assay: monolayer binding of 2.16 nM 125I-CNTF to COS cells transfected with clone I2 (6.5 x 10^4 cells/well); specific cpm per cell
[23] = biological target: human ciliary neurotrophic factor receptor (CNTFR) (human); assay: approx. 100 pM iodinated CNTF on SH-SY5Y cells pre-treated with PI-PLC 500 mU/ml (receptor released before binding); no cold excess
[24] = biological target: human ciliary neurotrophic factor receptor (CNTFR) (human); assay: approx. 100 pM iodinated CNTF on SH-SY5Y cells pre-treated with PI-PLC 500 mU/ml; with thousand-fold excess unlabelled CNTF (non-specific)
[25] = biological target: human ciliary neurotrophic factor receptor (CNTFR) (human); assay: approx. 100 pM iodinated CNTF on SH-SY5Y cells; control pre-treatment without PI-PLC; with thousand-fold excess unlabelled CNTF (non-specific)
[26] = biological target: human ciliary neurotrophic factor receptor (CNTFR) (human); assay: monolayer binding of 2.16 nM 125I-CNTF to SH-SY5Y cells (3 x 10^5 cells/well, endogenous receptor); cpm with 1000-fold excess unlabelled CNTF subtracted
[27] = biological target: human ciliary neurotrophic factor receptor (CNTFR) (human); assay: monolayer binding of 2.16 nM 125I-CNTF to COS cells transfected with clone I2 (6.5 x 10^4 cells/well); cpm with 1000-fold excess unlabelled CNTF subtracted

## CNTF/myc (CNTF carrying a C-terminal ten amino acid c-myc epitope tag) (ligand)
[1]
  fold increase (FACS fluorescence) against cells transfected with negative clones: 100 fold
[2]
  CPM bound (125I-GaM): 2000 CPM
[3]
  CPM bound (125I-GaM): 8500 CPM
[4]
  CPM bound (125I-GaM): 9000 CPM
[5]
  CPM bound (125I-GaM): 2000 CPM
[6]
  CPM bound (125I-GaM): 1600 CPM
[7]
  CPM bound (125I-GaM): 6000 CPM
[8]
  CPM bound (125I-GaM): 7500 CPM
[9]
  CPM bound (125I-GaM): 7000 CPM
[10]
  CPM bound (125I-GaM): 4500 CPM
[11]
  CPM bound (125I-GaM): 7000 CPM
[12]
  CPM bound (125I-GaM): 5000 CPM
[13]
  CPM bound (125I-GaM): 8000 CPM
[14]
  CPM bound (125I-GaM): 10000 CPM
[15]
  CPM bound (125I-GaM): 8000 CPM

## 125I-hCNTF (iodinated human ciliary neurotrophic factor) (from UniProt P26441 1-200) (ligand)
[16]
  CPM Bound: 1250 CPM
[17]
  CPM Bound: 1060 CPM
[18]
  CPM Bound: 1440 CPM
[19]
  CPM Bound: 310 CPM
[20]
  cpm/cell: 0.00428 cpm/cell
[21]
  CPM Bound: 300 CPM
[22]
  cpm/cell: 0.0217 cpm/cell
[23]
  CPM Bound: 420 CPM
[24]
  CPM Bound: 310 CPM
[25]
  CPM Bound: 370 CPM
[26]
  Specific cpm bound: 1280 cpm
[27]
  Specific cpm bound: 1410 cpm
